{"source": "paper PMC3213119", "about": "“Towards a Structural Comprehension of Bacterial Type VI Secretion Systems: Characterization of the TssJ-TssM Complex of an Escherichia coli Pathovar” (PLoS Pathogens, 2011)", "key": {"[1]": {"target": "T1, TssJ (enteroaggregative E. coli Sci1 T6SS), residues 2-155 of the processed lipoprotein, fusion and tag … (enteroaggregative Escherichia coli …)", "T1 construct": "TssJ outer membrane lipoprotein of the sci1 cluster, enteroaggregative Escherichia coli strain 17-2; residues 2-155 of the processed lipoprotein = residues 25-178 of the full-length protein; a Gly left at position 1 may stem from the TEV site (surmised); also called native TssJ; SciN; not shown: thioredoxin, N-terminal, cleaved; His6, N-terminal, cleaved", "assay": "SPR; Biacore X100; Trx-TssM-ekto covalently coupled to a CM5 chip (3000 RU), TssJ injected (40-0.312 µM); 10 mM Tris pH 8, 150 mM NaCl, 0.005% Tween; Kd from equilibrium levels, 1:1 model", "conditions": "both partners purified"}, "[2]": {"target": "T2, TssJ N-terminal thioredoxine fusion (enteroaggregative Escherichia coli …)", "T2 construct": "TssJ of enteroaggregative Escherichia coli strain 17-2; residues 2-155 of the processed lipoprotein = residues 25-178 of the full-length protein; pETG-20A construct: hexahistidine tagged thioredoxin, TEV site, TssJ; used uncleaved on the CM5 chip; also called Trx-TssJ; source: E. coli T7 Iq pLysS, purified; not shown: thioredoxin, N-terminal, kept; His6, N-terminal, kept", "assay": "SPR; Biacore X100; Trx-TssJ covalently coupled to a CM5 chip (600 RU), TssM construct injected (Trx-TssM-ekto at 10-0.312 µM); 10 mM Tris pH 8, 150 mM NaCl, 0.005% Tween; Kd from equilibrium levels, 1:1 model", "conditions": "both partners purified"}}}
{"binder": "TssM-ekto N-terminal thioredoxine fusion (domain or fragment) DYGSLTAAGLGQEWYGFGQTVFVRPMEQAWQQVLTPAAESLNARWRTAVVDGWNNAFSGRYPFKNVSSDASLPLLAKYLNTDTGRIARFLQNNLSGVLHREGSRWVPDTINTRGLTFNPAFLKAINTLSEIADVAFTTGNAGLHFELRPGTAAGVMQTTLITDNQKLIYVNQMPVWKRFTWPADTEAPGASLSWVSTQAGTRQYADLPGSWGLIRLLEMARRKAAPGVASGWSLSWQAQDGRMLNYTLRTEAGEGPLVLLKLRNFVLPETVFELSGTSAFTGNDEDAGDTVEETD", "values": [{"measurement": "Kd", "setting": "[1]", "result": "4 ± 0.5", "unit": "µM"}, {"measurement": "Kd", "setting": "[2]", "result": 2.1, "unit": "µM"}]}
